Measured values published in US20260234738A1 (Regeneron, published 2026).
Positions count from the first letter of the chain named.

B1: mAb10966 (antibody, V domains shown)
VH: EVQLVESGGGLVQPGGSLRLSCAASGLTVSSNYMSWVRQAPGKGLEWVSVIYSGGSTFYADSVKGRFTISRDNSKNTLYLQMNSLRPEDTAVYYCAREGRIAATGYGMDVWGQGTTVTVSS
VL: not shown
B2: mAb10964 (antibody, V domains shown)
VH: QVQLQESGPGLVKPSETLSLTCTVSGGSINNYYWIWIRQPPGKGLEWIGYIYHSGSTNYNPSLKSRVTISVDTSKNQFSLKVSSVTAADTAVYYCANMVRGVYEDDYWGQGTLVTVSS
VL: DIQMTQSPSSLSASVGDRVTITCRASQSISNYLNWYQQKPGKAPKLLIFAASSLRSGVPSRFSGSGSGTDFTLTISSLHPEDFATYYCQQNYNTPLTFGPGTKVDIKR
B3: mAb10971 (antibody, V domains shown)
VH: EVQLVESGGGLIQPGGSLRLSCAASGVTVSSNYMSWVRQAPGKGLEWVSVIYSGGSTFYSDSVKGRFSISRDNSKNTLYLQMNSLRAEDTAVYYCARDLYYYGMDVWGQGTTVTVSS
VL: DIQLTQSPSFLSASVGDRVTITCRASQGISTYLAWYQQKPGKAPKLLIYAASTLQSGVPSRFSGSGSGTEFTLTISSLQPEDFATYYCQQLDSYPGLTFGGGTKVEIKR
B4: mAb10957 (antibody, V domains shown)
VH: B3 VH with I12V, S60A, S68T, Y79F, A87I, Y100G, Y101P
VL: B3 VL with T31S, E70Q, T72I, D92N, L97F, G101P, E106D
B5: mAb10956 (antibody, V domains shown)
VH: B3 VH with I12V, V27L, S60A, S68T, Y100I, Y101K
VL: not shown
B6: mAb10967 (antibody, V domains shown)
VH: EVQLVESGGGLVQPGGSLRLSCAASGFTVSSNYMSWVRQAPGKGLEWVSVIYPGGSTFYADSVKGRFTISRDNSKNTLYLQMNSLRAEDTAVYYCARDQRDFAWGQGTLVTVSS
VL: DIQMTQSPSSLSASVGDRVTITCQASQDISNYLNWYQQKPGKAPKLLIYDASNLETGVPSRFSGSGSGTDFTFTISGLQPEDIATYYCQQYDNLPPTFGQGTRLEIKR
B7: mAb10955 (antibody, V domains shown)
VH: EVQLVESGGGLVQPGGSLRVSCAASGFTVSRNYMSWVRQAPGKGLEWVSVIYSGGSTFYADSVKGRFTISRDNSKNTLYLQMNSLRAEDTAIYYCARYIPRFDPWGQGTLVTVSS
VL: B6 VL with Y36F, K42R, G77S, P96I
B8: mAb10954 (antibody, V domains shown)
VH: EVQLVESGGGLVQPGGSLRLSCAASGITVSSNYMSWVRQAPGKGLEWVSLIYSGGSTYYADSVKGRFTISRDNSKNTLYLQMNSLRVEDTAVYYCARDHGMAAAGYNYWGQGTLVTVSS
VL: B6 VL with S30N, N31K, S76N, G77S, I83F, Y87F, T97A, R103K, L104V

These binders were tested against SARS-COV-2 RBD extracellular domain expressed with a C-terminal mouse IgG2a (SARS-CoV-2).

Row | Binder | Kd | t½ | koff | kon
1 | B1 | ≤ 0.0249 nM | ≥ 1160 min | – | –
2 | B2 | ≤ 0.007 nM | ≥ 1160 min | – | –
3 | B3 | ≤ 0.0253 nM | ≥ 1160 min | ≤ 1e-05 s⁻¹ | 395000 M⁻¹ s⁻¹
4 | B4 | ≤ 0.0279 nM | ≥ 1160 min | – | –
5 | B5 | 0.395 nM | 78 min | – | –
6 | B6 | ≤ 0.0251 nM | ≥ 1160 min | – | –
7 | B7 | 0.0592 nM | 494 min | – | –
8 | B8 | ≤ 0.0173 nM | ≥ 1160 min | – | –
